S/N (Signal/Noise) data for 1 substance are collected here from patent US20200408781A1.

Assay [1] addresses p217+ tau in pooled CSF from AD subjects (human tau protein or tau fragments phosphorylated at T217 and/or T212) (human) (UniProt P10636). The assay can be described thus: Simoa sandwich ELISA, pT3 capture; pooled AD CSF at 1:8 dilution. A general note: In an ELISA, binding on a coated surface is turned into a signal by an enzyme label.
Assay [2] shares this target. The assay can be described thus: Simoa sandwich ELISA, pT3 capture; pooled AD CSF at 1:32 dilution.
Assay [3] has the same target. The assay can be described thus: Simoa sandwich ELISA, pT3 capture; pooled AD CSF at 1:4 dilution.
Assay [4] has the same target. The assay can be described thus: Simoa sandwich ELISA, pT3 capture; pooled AD CSF at 1:16 dilution.
Assay [5] has the same target. The assay can be described thus: Simoa sandwich ELISA, pT3 capture; pooled AD CSF at 1:2 dilution.
Assay [6] has the same target. The assay can be described thus: Simoa sandwich ELISA, pT3 capture; pooled AD CSF at 1:64 dilution.

Chain of p217+ tau in pooled CSF from AD subjects (human tau protein or tau fragments phosphorylated at T217 and/or T212) (human) (P10636 other isoform, or with tags, fused parts or gaps limits assumed): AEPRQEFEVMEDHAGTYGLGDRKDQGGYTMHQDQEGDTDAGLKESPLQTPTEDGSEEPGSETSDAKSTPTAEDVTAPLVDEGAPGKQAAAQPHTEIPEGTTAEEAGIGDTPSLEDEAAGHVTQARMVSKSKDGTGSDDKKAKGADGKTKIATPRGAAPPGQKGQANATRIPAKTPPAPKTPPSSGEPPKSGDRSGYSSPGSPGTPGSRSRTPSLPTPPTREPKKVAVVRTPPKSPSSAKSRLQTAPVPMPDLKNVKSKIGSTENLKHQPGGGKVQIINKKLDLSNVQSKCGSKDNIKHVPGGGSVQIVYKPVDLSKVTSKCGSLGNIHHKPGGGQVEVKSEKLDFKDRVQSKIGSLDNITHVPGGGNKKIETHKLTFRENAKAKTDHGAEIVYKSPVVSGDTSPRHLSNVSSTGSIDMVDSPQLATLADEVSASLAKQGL

Consider “Quanterix tau 2.0 assay detector (antibody)”, for which the S/N (Signal/Noise) is 147 in assay [1]; 35 in assay [2]; 262 in assay [3]; 75 in assay [4]; 525 in assay [5]; 19 in assay [6].
